From paper PMC11549432 (Nature Communications, 2024)
Read-outs that look alike come from different tables or passages of the source. One block for each molecule: values may come before it.

Assays:
[1] = target: ObgE (Obg of E. coli), wild type, N-terminally His6-tagged, purified (E. coli) (UniProt P42641); assay: MST
[2] = target: ObgE (Obg of E. coli), wild type, N-terminally His6-tagged, purified (E. coli) (UniProt P42641); assay: MST; remark: listed apart in the source
[3] = target: ObgE (Obg of E. coli), wild type, N-terminally His6-tagged, purified (E. coli) (UniProt P42641); assay: MST; remark: listed apart in the source
SEC-MALS = target: the molecule itself; assay: SEC-MALS

Chain of ObgE (Obg of E. coli), wild type, N-terminally His6-tagged, purified (E. coli) (P42641 whole entry): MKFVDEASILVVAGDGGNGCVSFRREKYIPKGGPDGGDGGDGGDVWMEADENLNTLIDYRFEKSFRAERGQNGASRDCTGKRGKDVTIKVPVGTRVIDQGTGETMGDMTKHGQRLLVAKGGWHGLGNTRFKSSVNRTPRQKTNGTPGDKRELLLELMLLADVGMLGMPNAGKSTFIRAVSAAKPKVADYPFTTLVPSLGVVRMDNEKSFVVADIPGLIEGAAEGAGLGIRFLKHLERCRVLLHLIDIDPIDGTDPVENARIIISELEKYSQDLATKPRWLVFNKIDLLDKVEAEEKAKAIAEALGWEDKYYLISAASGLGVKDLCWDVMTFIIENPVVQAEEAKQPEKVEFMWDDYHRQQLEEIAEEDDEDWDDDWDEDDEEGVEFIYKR

Kd [1]: 78 µM | Kd [2]: 99 µM | Kd [3]: 47 µM
Molecule: LpxA wild type (UDP-N-acetylglucosamine acyltransferase), purified (from UniProt P0A722 1-262) (enzyme)

B1: LpxA wild type (UDP-N-acetylglucosamine acyltransferase), purified (enzyme, E. coli, UniProt P0A722 1-262, looked up)
chain: MIDKSAFVHPTAIVEEGASIGANAHIGPFCIVGPHVEIGEGTVLKSHVVVNGHTKIGRDNEIYQFASIGEVNQDLKYAGEPTRVEIGDRNRIRESVTIHRGTVQGGGLTKVGSDNLLMINAHIAHDCTVGNRCILANNATLAGHVSVDDFAIIGGMTAVHQFCIIGAHVMVGGCSGVAQDVPPYVIAQGNHATPFGVNIEGLKRRGFSREAITAIRNAYKLIYRSGKTLDEVKPEIAELAETYPEVKAFTDFFARSTRGLIR
stoichiometry N (SEC-MALS): 3
